The text below walks through data of article PMC4132743 (Nucleic Acids Research, 2014).

Substitutions are numbered along the chain they refer to. Numbers in names are those of the source.

Data set [1] deals with the molecule itself. The data set can be described thus: SEC; Superdex 75 or Superdex 200 10/300 GL in buffer A (20 mM Tris-HCl pH 7.5, 40 mM NaCl, 5% glycerol), against molecular mass standards.
Data set [2] deals with the molecule itself. The data set can be described thus: negative-staining electron microscopy; purified DnaT alone in buffer A (also after DNase I), 0.7% uranyl formate, FEI Tecnai F20.
In data set [3] the target is T1, DnaT (wt, full length) (Escherichia coli K12, UniProt P0A8J2 1-179).
T1 sequence: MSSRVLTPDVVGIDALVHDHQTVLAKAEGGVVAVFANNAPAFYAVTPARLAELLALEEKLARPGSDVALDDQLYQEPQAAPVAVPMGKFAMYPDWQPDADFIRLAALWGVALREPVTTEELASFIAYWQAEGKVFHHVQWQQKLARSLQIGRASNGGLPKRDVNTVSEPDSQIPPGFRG
Briefly: fluorescence polarization; apparent; Hill h=1.8±0.2; Buffer A: 20 mM Tris-HCl pH 7.5, 40 mM NaCl, 5% v/v glycerol, 20 C; FPA 200 nM 5'-FAM DNA, Hill fit; EMSA 30 min at 20 C, gels in 0.5x TBE at 4 C. The following applies: protein: recombinant; tags: His-MBP removed by TEV; label: 5'-FAM. In general terms: Fluorescence polarisation rises when a labelled molecule tumbles more slowly, as on binding a larger partner.

Data set [4] concerns the target T1, DnaT (wt, full length). Briefly: fluorescence polarization; apparent; Hill h=2.0±0.2; Buffer A: 20 mM Tris-HCl pH 7.5, 40 mM NaCl, 5% v/v glycerol, 20 C; FPA 200 nM 5'-FAM DNA, Hill fit; EMSA 30 min at 20 C, gels in 0.5x TBE at 4 C. The following applies: protein: recombinant; tags: His-MBP removed by TEV; label: 5'-FAM.
Data set [5] addresses T1, DnaT (wt, full length). The data set can be described thus: fluorescence polarization; apparent; Hill h=1.8±0.3; Buffer A: 20 mM Tris-HCl pH 7.5, 40 mM NaCl, 5% v/v glycerol, 20 C; FPA 200 nM 5'-FAM DNA, Hill fit; EMSA 30 min at 20 C, gels in 0.5x TBE at 4 C. The following applies: protein: recombinant; tags: His-MBP removed by TEV; label: 5'-FAM.
The target of data set [6] is T1, DnaT (wt, full length). The data set can be described thus: fluorescence polarization; apparent; Hill h=2.5±0.6; Buffer A: 20 mM Tris-HCl pH 7.5, 40 mM NaCl, 5% v/v glycerol, 20 C; FPA 200 nM 5'-FAM DNA, Hill fit; EMSA 30 min at 20 C, gels in 0.5x TBE at 4 C. The following applies: protein: recombinant; tags: His-MBP removed by TEV; label: 5'-FAM.
Data set [7] concerns the target T1, DnaT (wt, full length). Briefly: fluorescence polarization; apparent; Hill h=2.3±0.2; Buffer A: 20 mM Tris-HCl pH 7.5, 40 mM NaCl, 5% v/v glycerol, 20 C; FPA 200 nM 5'-FAM DNA, Hill fit; EMSA 30 min at 20 C, gels in 0.5x TBE at 4 C. The following applies: protein: recombinant; tags: His-MBP removed by TEV; label: 5'-FAM.
Data set [8] deals with T2, DnaT84-179 (Escherichia coli K12, UniProt P0A8J2 84-179).
T2 sequence: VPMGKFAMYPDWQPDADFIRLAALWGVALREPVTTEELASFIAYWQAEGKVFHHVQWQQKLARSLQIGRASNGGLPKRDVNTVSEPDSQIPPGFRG
The data set can be described thus: fluorescence polarization; apparent; Hill h=2.7±0.2; Buffer A: 20 mM Tris-HCl pH 7.5, 40 mM NaCl, 5% v/v glycerol, 20 C; FPA 200 nM 5'-FAM DNA, Hill fit; EMSA 30 min at 20 C, gels in 0.5x TBE at 4 C. The following applies: protein: recombinant; tags: His-MBP removed by TEV; chain copies: 2; label: 5'-FAM.

In data set [9] the target is T1, DnaT (wt, full length). Briefly: fluorescence polarization; apparent; Hill h=3.6±0.3; Buffer A: 20 mM Tris-HCl pH 7.5, 40 mM NaCl, 5% v/v glycerol, 20 C; FPA 200 nM 5'-FAM DNA, Hill fit; EMSA 30 min at 20 C, gels in 0.5x TBE at 4 C. The following applies: protein: recombinant; tags: His-MBP removed by TEV; label: 5'-FAM.
In data set [10] the target is T3, DnaT84-153 (Escherichia coli K12, UniProt P0A8J2 84-153).
T3 sequence: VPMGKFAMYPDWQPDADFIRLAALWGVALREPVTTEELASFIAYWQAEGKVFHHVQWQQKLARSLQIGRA
The data set can be described thus: fluorescence polarization; apparent; Hill h=2.1±0.2; Buffer A: 20 mM Tris-HCl pH 7.5, 40 mM NaCl, 5% v/v glycerol, 20 C; FPA 200 nM 5'-FAM DNA, Hill fit; EMSA 30 min at 20 C, gels in 0.5x TBE at 4 C. The following applies: protein: recombinant; tags: His-MBP removed by TEV; label: 5'-FAM.

Data set [11] has as its target T1, DnaT (wt, full length). Briefly: EMSA; 20 uM DNA; Buffer A: 20 mM Tris-HCl pH 7.5, 40 mM NaCl, 5% v/v glycerol, 20 C; FPA 200 nM 5'-FAM DNA, Hill fit; EMSA 30 min at 20 C, gels in 0.5x TBE at 4 C. The following applies: protein: recombinant; tags: His-MBP removed by TEV.
In data set [12] the target is T1, DnaT (wt, full length). Briefly: fluorescence polarization; apparent; Hill h=1.6±0.2; Buffer A: 20 mM Tris-HCl pH 7.5, 40 mM NaCl, 5% v/v glycerol, 20 C; FPA 200 nM 5'-FAM DNA, Hill fit; EMSA 30 min at 20 C, gels in 0.5x TBE at 4 C. The following applies: protein: recombinant; tags: His-MBP removed by TEV; label: 5'-FAM.
Data set [13] addresses T1, DnaT (wt, full length). The data set can be described thus: fluorescence polarization; apparent; Hill h=2.3±0.3; Buffer A: 20 mM Tris-HCl pH 7.5, 40 mM NaCl, 5% v/v glycerol, 20 C; FPA 200 nM 5'-FAM DNA, Hill fit; EMSA 30 min at 20 C, gels in 0.5x TBE at 4 C. The following applies: protein: recombinant; tags: His-MBP removed by TEV; label: 5'-FAM.

B1: DnaT F135A (natural protein, Escherichia coli (strain K12), UniProt P0A8J2 1-179, looked up)
chain: T1 sequence with F135A
notes: E. coli K12 DnaT, made from the wt-DnaT vector by site-directed mutagenesis; source: E. coli BL21 (DE3), purified as the wild type; not shown: His, N-terminal, cleaved; MBP, N-terminal, cleaved
In the case of B1, the binding result in data set [1] was “binds”.

B2: DnaT K143A (natural protein, Escherichia coli (strain K12), UniProt P0A8J2 1-179, looked up)
chain: T1 sequence with K143A
notes: as for B1
For B2, the binding result in [1] is reported as “binds”.

B3: DnaT Y127A/W128A double mutant (natural protein, Escherichia coli (strain K12), UniProt P0A8J2 1-179, looked up)
chain: T1 sequence with Y127A, W128A
notes: as for B1
With B3, the binding result in data set [1] is recorded as “binds”.

B4: DnaT R146A (natural protein, Escherichia coli (strain K12), UniProt P0A8J2 1-179, looked up)
chain: T1 sequence with R146A
notes: as for B1
For B4, in data set [1], the binding result is recorded as “binds”.

B5: DnaT K133A (natural protein, Escherichia coli (strain K12), UniProt P0A8J2 1-179, looked up)
chain: T1 sequence with K133A
notes: as for B1
On to B5, for which, in data set [1], the binding result is “binds”.

B6: DnaT W128A (natural protein, Escherichia coli (strain K12), UniProt P0A8J2 1-179, looked up)
chain: T1 sequence with W128A
notes: as for B1
Turning to B6, the binding result in data set [1] is reported as “binds”.

B7: DnaT (full-length, wild type) (natural protein, Escherichia coli (strain K12), UniProt P0A8J2 1-179, looked up)
chain: T1 sequence
notes: E. coli K12 DnaT, amplified from genomic DNA; also called wt-DnaT; DnaT-FL; source: E. coli BL21 (DE3), purified (Ni-chelating resin, TEV digestion, HisTrap HP, HiTrap DEAE FF, Superdex 200); not shown: His, N-terminal, cleaved; MBP, N-terminal, cleaved
For the molecule B7, the binding result in data set [2] is reported as “binds”.

B8: DnaT Y127A (natural protein, Escherichia coli (strain K12), UniProt P0A8J2 1-179, looked up)
chain: T1 sequence with Y127A
notes: as for B1
With B8, the binding result in data set [1] was “binds”. Regarding AAAAAAAAAAAAAAAAAAAAAAAAAAAAAA (ssDNA) [5F-dA30], the Kd in data set [3] was found to be 39.2 ± 3.85 µM. TTTTTTTTTTTTTTT (ssDNA) [5F-dT15]: the Kd in [4] stood at 16.2 ± 1.63 µM. TGGTGGTGGTGGTGGTGGTGGTGGTGGTGG (ssDNA) [5F-d(TGG)10]: the Kd in data set [5] came to 2.76 ± 0.28 µM. Consider AAAAAAAAAAAAAAA (ssDNA) [5F-dA15], for which the Kd in [6] came out at 46.7 ± 6.87 µM.

B9: DnaT^84–153 (N- and C-terminal-truncated DnaT, recombinant fragment) (domain or fragment, Escherichia coli (strain K12), UniProt P0A8J2 84-153, looked up)
chain: T3 sequence
notes: Dimer in solution by size-exclusion chromatography (see the N row); source: E. coli BL21 (DE3), purified (Ni-chelating resin, TEV digestion, HisTrap HP, HiTrap DEAE FF, Superdex 200); not shown: His, N-terminal, cleaved; MBP, N-terminal, cleaved
For the molecule B9, the stoichiometry N (commonly the number of molecules, sites or subunits per partner or assembly) in data set [1] came out at 2. TGGGTGGGTGGGTGGGTGGGTGGGTGGG (ssDNA) [5F-d(TGGG)7]: in data set [7], the Kd was 0.597 ± 0.02 µM. In the case of TTTTTTTTTTTTTTTTTTTTTTTTTTTTTT (ssDNA) [5F-dT30], the Kd in data set [8] was determined as 9.87 ± 0.32 µM; in data set [9] it was 12.9 ± 0.57 µM; in [10], 27.1 ± 2.3 µM.

For the molecule TTTTTTTTTT (ssDNA) [dT10], the binding result in [11] is given as “binds”. Regarding TGTGTGTGTGTGTGTGTGTGTGTGTGTGTG (ssDNA) [5F-d(TG)15], in [12], the Kd worked out at 1.3 ± 0.11 µM. On to CACACACACACACACACACACACACACACA (ssDNA) [5F-d(CA)15], for which the Kd in [13] was 31.5 ± 3.6 µM.

B10: DnaT^84–179 (N-terminal-truncated DnaT) (domain or fragment, Escherichia coli (strain K12), UniProt P0A8J2 84-179, looked up)
chain: T2 sequence
notes: as for B9
For B10, the “stoichiometry N” value in data set [1] was 2.
